# Laboratory results as given in US20200362349, “APPLICATION OF APTAMER IN RECOGNITION AND BINDING OF ALKALINE PHOSPHATASE HETERODIMER OR TUMOR DETECTION” (INSTITUTE OF CHEMISTRY, CHINESE ACADEMY OF SCIENCES, published 2020).
# B1: BG2 with primer sequences (ssDNA)
# DNA: ACGCTCGGATGCCACTACAGTCAAGGAATAGGGGTCGGTGTGGGTGGTTATGATTGGCTTCCTTGTCTCATGGACGTGCTGGTGAC
# Biological target: alkaline phosphatase heterodimer IAP/PALP (ALPI/ALPP) on LoVo cells (Homo sapiens, UniProt P09923;P05187 P09923:20-503,P05187:23-506)
# Sequence (P09923 20-503, chain 1 of 2): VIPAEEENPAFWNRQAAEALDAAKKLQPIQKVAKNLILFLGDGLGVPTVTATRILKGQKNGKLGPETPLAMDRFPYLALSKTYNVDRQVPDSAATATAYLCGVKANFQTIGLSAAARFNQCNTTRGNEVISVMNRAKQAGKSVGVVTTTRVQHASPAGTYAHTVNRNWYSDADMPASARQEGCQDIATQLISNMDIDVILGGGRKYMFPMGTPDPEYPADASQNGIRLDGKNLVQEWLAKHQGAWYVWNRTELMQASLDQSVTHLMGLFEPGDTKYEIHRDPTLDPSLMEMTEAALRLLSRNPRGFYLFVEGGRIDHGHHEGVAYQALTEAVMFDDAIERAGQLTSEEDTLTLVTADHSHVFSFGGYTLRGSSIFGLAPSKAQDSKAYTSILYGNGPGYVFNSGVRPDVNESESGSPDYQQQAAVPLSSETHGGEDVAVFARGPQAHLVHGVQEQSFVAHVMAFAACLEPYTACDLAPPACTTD
# Sequence (P05187 23-506, chain 2 of 2): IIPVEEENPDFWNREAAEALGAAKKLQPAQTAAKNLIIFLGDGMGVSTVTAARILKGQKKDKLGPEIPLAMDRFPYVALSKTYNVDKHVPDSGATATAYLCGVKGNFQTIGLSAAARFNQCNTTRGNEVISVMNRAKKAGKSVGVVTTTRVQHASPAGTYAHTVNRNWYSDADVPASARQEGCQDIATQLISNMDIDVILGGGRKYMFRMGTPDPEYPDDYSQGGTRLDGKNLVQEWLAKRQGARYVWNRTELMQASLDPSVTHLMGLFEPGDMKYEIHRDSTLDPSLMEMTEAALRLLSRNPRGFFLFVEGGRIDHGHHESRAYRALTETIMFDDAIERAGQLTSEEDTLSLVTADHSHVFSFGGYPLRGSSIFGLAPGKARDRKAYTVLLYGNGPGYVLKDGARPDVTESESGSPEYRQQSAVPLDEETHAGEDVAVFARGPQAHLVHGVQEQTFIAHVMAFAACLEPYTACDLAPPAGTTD
# Test: flow; apparent Kd on LoVo cells
# Details: tags: endogenous, LoVo colon cancer cells, label: fluorescent dye
# Experimental: A dish of colon cancer LoVo cells in the logarithmic growth phase was digested with 0.2% EDTA in PBS into a monodisperse cell suspension, and then divided into several aliquots. The aliquots were incubated with a fluorescent molecule-labeled aptamer probe solution for 30 min and washed twice with washing buffer, and then the fluorescence intensity on the cell surface was measured with BD FACSalibur flow cytometer. The average fluorescence intensity on the cell surface was plotted against the concentration of the aptamer, and the equilibrium dissociation constant Kd of the aptamer was calculated according to the following formula: Y=BₘₐₓX (Kd+X).
Binder,Kd,Kd (stem-loop)
GGGGTCGGTGTGGGTGGTTATGATTGG (ssDNA) [BG2e],9.3 nM,
B1,2.9 nM,
TAAGAAATAGGGGTCGGTGTGGGTGGTTATGATTGGCTTTCTTA (ssDNA) [BG2 stem-replaced sequence 4],,5.7 nM
"CAAGGAATAGGGGTCGGTGTGGGTGGTTATGATTGGCTTCCTTG (ssDNA, PS at nucleotides 1-7 and the last 7 at the 3' end) [thio-modified BG2]",,3.5 nM
GATAACATAGGGGTCGGTGTGGGTGGTTATGATTGGCTGTTATC (ssDNA) [BG2 stem-replaced sequence 5],,3 nM
